Numbered stars: 1 amine (or outer) side, 2 acyl side, 3 side chain; on linkers, the order of the positions; unused ones are H or OH. Bridge positions count the residues as written; N and C are the ends. Side chains are listed from the residue outwards. Ends that are not written are not given here. * marks the point of attachment. C20 diacid = O=C(O)CCCCCCCCCCCCCCCCCCC(=O)*; γGlu = O=C(O)[C@H](CCC(=O)[*:2])N[*:1]
T1: rat calcitonin receptor (rat, UniProt P32214 25-516)
T1 construct: whole, on cells; Membranes prepared from transiently transfected BHK tk'ts 13 cells (Assay VIII); also called rCTR; rCT
T1 sequence (looked up): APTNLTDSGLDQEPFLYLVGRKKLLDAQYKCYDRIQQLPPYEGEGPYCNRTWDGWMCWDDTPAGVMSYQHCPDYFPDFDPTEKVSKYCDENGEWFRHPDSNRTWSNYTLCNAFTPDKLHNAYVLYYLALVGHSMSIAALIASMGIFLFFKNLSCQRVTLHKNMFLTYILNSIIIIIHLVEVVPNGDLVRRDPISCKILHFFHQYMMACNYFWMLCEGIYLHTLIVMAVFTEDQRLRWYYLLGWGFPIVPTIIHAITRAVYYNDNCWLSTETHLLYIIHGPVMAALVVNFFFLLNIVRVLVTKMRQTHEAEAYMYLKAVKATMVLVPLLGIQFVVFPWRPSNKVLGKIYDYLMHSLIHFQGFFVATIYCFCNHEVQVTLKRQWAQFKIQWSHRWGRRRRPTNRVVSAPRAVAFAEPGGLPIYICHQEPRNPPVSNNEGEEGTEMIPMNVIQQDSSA

T2: human calcitonin receptor (human, UniProt P30988 25-474)
T2 construct: whole, on cells; Membranes prepared from a stably transfected BHK cell line (Assay VII); also called hCTR; hCT
T2 sequence (looked up): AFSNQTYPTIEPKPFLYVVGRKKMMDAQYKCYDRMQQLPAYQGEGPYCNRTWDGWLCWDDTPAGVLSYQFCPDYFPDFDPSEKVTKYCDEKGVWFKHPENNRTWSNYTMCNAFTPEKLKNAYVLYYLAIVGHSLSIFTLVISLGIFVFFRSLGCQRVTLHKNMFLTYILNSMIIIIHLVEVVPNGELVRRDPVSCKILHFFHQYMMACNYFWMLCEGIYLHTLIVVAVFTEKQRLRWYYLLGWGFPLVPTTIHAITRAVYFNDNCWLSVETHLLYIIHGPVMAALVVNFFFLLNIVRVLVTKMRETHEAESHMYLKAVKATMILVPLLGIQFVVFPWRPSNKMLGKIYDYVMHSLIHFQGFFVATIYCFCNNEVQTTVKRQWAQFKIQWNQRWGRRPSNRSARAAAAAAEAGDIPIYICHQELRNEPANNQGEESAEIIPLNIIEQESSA

T3: rat amylin receptor (rat calcitonin receptor + rat RAMP 3) (rat, UniProt P32214 25-516; Q9JJ73 23-147)
T3 construct: whole, on cells; Membranes prepared from transiently transfected BHK tk'ts 13 cells (Assay VI); also called rAmylin-R; rAmylin
T3 sequence (looked up) 1: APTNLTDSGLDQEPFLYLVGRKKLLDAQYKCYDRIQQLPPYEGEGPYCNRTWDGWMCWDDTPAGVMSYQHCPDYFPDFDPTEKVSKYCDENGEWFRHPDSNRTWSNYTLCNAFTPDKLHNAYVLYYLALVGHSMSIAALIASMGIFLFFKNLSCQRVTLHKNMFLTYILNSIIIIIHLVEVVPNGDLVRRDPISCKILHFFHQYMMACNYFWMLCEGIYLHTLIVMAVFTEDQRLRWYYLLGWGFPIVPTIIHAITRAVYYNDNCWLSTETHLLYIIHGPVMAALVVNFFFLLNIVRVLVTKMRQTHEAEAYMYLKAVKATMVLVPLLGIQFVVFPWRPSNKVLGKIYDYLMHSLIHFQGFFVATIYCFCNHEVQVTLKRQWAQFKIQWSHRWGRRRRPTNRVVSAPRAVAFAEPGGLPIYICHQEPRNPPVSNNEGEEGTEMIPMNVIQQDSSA
T3 sequence (looked up) 2: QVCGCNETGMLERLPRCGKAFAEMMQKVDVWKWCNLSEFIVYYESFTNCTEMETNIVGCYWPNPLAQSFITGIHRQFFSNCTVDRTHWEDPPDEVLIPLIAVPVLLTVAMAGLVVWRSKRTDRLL


Assays:
[1] = target: T1, rat calcitonin receptor; assay: ratio of binding IC50s: rat calcitonin receptor / rat amylin receptor (reference)
[2] = target: T2, human calcitonin receptor; assay: ratio of binding IC50s: human calcitonin receptor / human amylin receptor (reference)
In short: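 Competition binding by SPA uses membrane preparations (35 ng/μL final) in pH 7.4 Hepes buffer with 1 mM CaCl2 and 5 mM MgCl₂. Incubation lasts 120 min at 25° C, and IC₅₀ comes from one-site fitting.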

[3] = target: T1, rat calcitonin receptor; assay: SPA competition vs 125I-calcitonin, membranes of BHK cells with rat calcitonin receptor (Assay VIII)
[4] = target: T3, rat amylin receptor (rat calcitonin …); assay: SPA competition vs 125I-rat amylin, membranes of BHK cells with rat calcitonin receptor + rat RAMP3 (Assay VI)

Binder | Ratio rCT/rAmylin binding [1] | Ratio hCT/hAmylin binding [2] | IC50 [3] [nM] | IC50 [4] [nM]
K([γGlu-C20 diacid])CNTATCATQRLAHFLRHSSPNFGAIPSSTNVGSHTY-NH2 (disulfide 2-7; N-terminus assumed; SMILES CC[C@H](C)[C@H](NC(=O)[C@H](C)NC(=O)CNC(=O)[C@H](Cc1ccccc1)NC(=O)[C@H](CC(N)=O)NC(=O)[C@@H]1CCCN1C(=O)[C@H](CO)NC(=O)[C@H](CO)NC(=O)[C@H](Cc1c[nH]cn1)NC(=O)[C@H](CCCNC(=N)N)NC(=O)[C@H](CC(C)C)NC(=O)[C@H](Cc1ccccc1)NC(=O)[C@H](Cc1c[nH]cn1)NC(=O)[C@H](C)NC(=O)[C@H](CC(C)C)NC(=O)[C@H](CCCNC(=N)N)NC(=O)[C@H](CCC(N)=O)NC(=O)[C@@H](NC(=O)[C@H](C)NC(=O)[C@@H]1CSSC[C@H](NC(=O)[C@@H](N)CCCCNC(=O)CC[C@H](NC(=O)CCCCCCCCCCCCCCCCCCC(=O)O)C(=O)O)C(=O)N[C@@H](CC(N)=O)C(=O)N[C@@H]([C@@H](C)O)C(=O)N[C@@H](C)C(=O)N[C@@H]([C@@H](C)O)C(=O)N1)[C@@H](C)O)C(=O)N1CCC[C@H]1C(=O)N[C@@H](CO)C(=O)N[C@@H](CO)C(=O)N[C@H](C(=O)N[C@@H](CC(N)=O)C(=O)N[C@H](C(=O)NCC(=O)N[C@@H](CO)C(=O)N[C@@H](Cc1c[nH]cn1)C(=O)N[C@H](C(=O)N[C@@H](Cc1ccc(O)cc1)C(N)=O)[C@@H](C)O)C(C)C)[C@@H](C)O, Analogue of human amylin; also called compound 66) | 35.8 | 45.5 | 20.8 | 0.581
K([γGlu-γGlu-C20 diacid])CNTATCATQRLANFLRHSSPNFGAIPSSTNVGHNTY-NH2 (disulfide 2-7; N-terminus assumed; SMILES CC[C@H](C)[C@H](NC(=O)[C@H](C)NC(=O)CNC(=O)[C@H](Cc1ccccc1)NC(=O)[C@H](CC(N)=O)NC(=O)[C@@H]1CCCN1C(=O)[C@H](CO)NC(=O)[C@H](CO)NC(=O)[C@H](Cc1c[nH]cn1)NC(=O)[C@H](CCCNC(=N)N)NC(=O)[C@H](CC(C)C)NC(=O)[C@H](Cc1ccccc1)NC(=O)[C@H](CC(N)=O)NC(=O)[C@H](C)NC(=O)[C@H](CC(C)C)NC(=O)[C@H](CCCNC(=N)N)NC(=O)[C@H](CCC(N)=O)NC(=O)[C@@H](NC(=O)[C@H](C)NC(=O)[C@@H]1CSSC[C@H](NC(=O)[C@@H](N)CCCCNC(=O)CC[C@H](NC(=O)CC[C@H](NC(=O)CCCCCCCCCCCCCCCCCCC(=O)O)C(=O)O)C(=O)O)C(=O)N[C@@H](CC(N)=O)C(=O)N[C@@H]([C@@H](C)O)C(=O)N[C@@H](C)C(=O)N[C@@H]([C@@H](C)O)C(=O)N1)[C@@H](C)O)C(=O)N1CCC[C@H]1C(=O)N[C@@H](CO)C(=O)N[C@@H](CO)C(=O)N[C@H](C(=O)N[C@@H](CC(N)=O)C(=O)N[C@H](C(=O)NCC(=O)N[C@@H](Cc1c[nH]cn1)C(=O)N[C@@H](CC(N)=O)C(=O)N[C@H](C(=O)N[C@@H](Cc1ccc(O)cc1)C(N)=O)[C@@H](C)O)C(C)C)[C@@H](C)O, Analogue of human amylin; also called compound 86) | 126 | 159 | 352 | 2.8
K([γGlu-γGlu-C20 diacid])CNTATCATQRLAEFLRHSSPNFGAIPSSTNVGRNTY-NH2 (disulfide 2-7; N-terminus assumed; SMILES CC[C@H](C)[C@H](NC(=O)[C@H](C)NC(=O)CNC(=O)[C@H](Cc1ccccc1)NC(=O)[C@H](CC(N)=O)NC(=O)[C@@H]1CCCN1C(=O)[C@H](CO)NC(=O)[C@H](CO)NC(=O)[C@H](Cc1c[nH]cn1)NC(=O)[C@H](CCCNC(=N)N)NC(=O)[C@H](CC(C)C)NC(=O)[C@H](Cc1ccccc1)NC(=O)[C@H](CCC(=O)O)NC(=O)[C@H](C)NC(=O)[C@H](CC(C)C)NC(=O)[C@H](CCCNC(=N)N)NC(=O)[C@H](CCC(N)=O)NC(=O)[C@@H](NC(=O)[C@H](C)NC(=O)[C@@H]1CSSC[C@H](NC(=O)[C@@H](N)CCCCNC(=O)CC[C@H](NC(=O)CC[C@H](NC(=O)CCCCCCCCCCCCCCCCCCC(=O)O)C(=O)O)C(=O)O)C(=O)N[C@@H](CC(N)=O)C(=O)N[C@@H]([C@@H](C)O)C(=O)N[C@@H](C)C(=O)N[C@@H]([C@@H](C)O)C(=O)N1)[C@@H](C)O)C(=O)N1CCC[C@H]1C(=O)N[C@@H](CO)C(=O)N[C@@H](CO)C(=O)N[C@H](C(=O)N[C@@H](CC(N)=O)C(=O)N[C@H](C(=O)NCC(=O)N[C@@H](CCCNC(=N)N)C(=O)N[C@@H](CC(N)=O)C(=O)N[C@H](C(=O)N[C@@H](Cc1ccc(O)cc1)C(N)=O)[C@@H](C)O)C(C)C)[C@@H](C)O, Analogue of human amylin; also called compound 88) | 84.9 | 46.5 | 196 | 2.31
K([γGlu-C20 diacid])CNTATCATQRLAHFLRHSSPNFGAIPSSTNVGPNTY-NH2 (disulfide 2-7; N-terminus assumed; SMILES CC[C@H](C)[C@H](NC(=O)[C@H](C)NC(=O)CNC(=O)[C@H](Cc1ccccc1)NC(=O)[C@H](CC(N)=O)NC(=O)[C@@H]1CCCN1C(=O)[C@H](CO)NC(=O)[C@H](CO)NC(=O)[C@H](Cc1c[nH]cn1)NC(=O)[C@H](CCCNC(=N)N)NC(=O)[C@H](CC(C)C)NC(=O)[C@H](Cc1ccccc1)NC(=O)[C@H](Cc1c[nH]cn1)NC(=O)[C@H](C)NC(=O)[C@H](CC(C)C)NC(=O)[C@H](CCCNC(=N)N)NC(=O)[C@H](CCC(N)=O)NC(=O)[C@@H](NC(=O)[C@H](C)NC(=O)[C@@H]1CSSC[C@H](NC(=O)[C@@H](N)CCCCNC(=O)CC[C@H](NC(=O)CCCCCCCCCCCCCCCCCCC(=O)O)C(=O)O)C(=O)N[C@@H](CC(N)=O)C(=O)N[C@@H]([C@@H](C)O)C(=O)N[C@@H](C)C(=O)N[C@@H]([C@@H](C)O)C(=O)N1)[C@@H](C)O)C(=O)N1CCC[C@H]1C(=O)N[C@@H](CO)C(=O)N[C@@H](CO)C(=O)N[C@H](C(=O)N[C@@H](CC(N)=O)C(=O)N[C@H](C(=O)NCC(=O)N1CCC[C@H]1C(=O)N[C@@H](CC(N)=O)C(=O)N[C@H](C(=O)N[C@@H](Cc1ccc(O)cc1)C(N)=O)[C@@H](C)O)C(C)C)[C@@H](C)O, Analogue of human amylin; also called compound 67) | 85.4 | 51.6 | 14.7 | 0.172
K([γGlu-C20 diacid])CNTATCATQRLAHFLRHSSPNFGAIPSSTPVGSNTY-NH2 (disulfide 2-7; N-terminus assumed; SMILES CC[C@H](C)[C@H](NC(=O)[C@H](C)NC(=O)CNC(=O)[C@H](Cc1ccccc1)NC(=O)[C@H](CC(N)=O)NC(=O)[C@@H]1CCCN1C(=O)[C@H](CO)NC(=O)[C@H](CO)NC(=O)[C@H](Cc1c[nH]cn1)NC(=O)[C@H](CCCNC(=N)N)NC(=O)[C@H](CC(C)C)NC(=O)[C@H](Cc1ccccc1)NC(=O)[C@H](Cc1c[nH]cn1)NC(=O)[C@H](C)NC(=O)[C@H](CC(C)C)NC(=O)[C@H](CCCNC(=N)N)NC(=O)[C@H](CCC(N)=O)NC(=O)[C@@H](NC(=O)[C@H](C)NC(=O)[C@@H]1CSSC[C@H](NC(=O)[C@@H](N)CCCCNC(=O)CC[C@H](NC(=O)CCCCCCCCCCCCCCCCCCC(=O)O)C(=O)O)C(=O)N[C@@H](CC(N)=O)C(=O)N[C@@H]([C@@H](C)O)C(=O)N[C@@H](C)C(=O)N[C@@H]([C@@H](C)O)C(=O)N1)[C@@H](C)O)C(=O)N1CCC[C@H]1C(=O)N[C@@H](CO)C(=O)N[C@@H](CO)C(=O)N[C@H](C(=O)N1CCC[C@H]1C(=O)N[C@H](C(=O)NCC(=O)N[C@@H](CO)C(=O)N[C@@H](CC(N)=O)C(=O)N[C@H](C(=O)N[C@@H](Cc1ccc(O)cc1)C(N)=O)[C@@H](C)O)C(C)C)[C@@H](C)O, Analogue of human amylin; also called compound 62) | 42.8 | 63 | 18 | 0.42
